Where a chain is given by its changes, count along the chain named.
B1: 1A1: anti-PAR-2 monoclonal antibody, blocking; heavy SEQ ID NO: 9, light SEQ ID NO: 11 (antibody, listed as Homo sapiens, V domains shown)
VH: EVQLVQSGAEVKKPGESLKISCKGSGYNFISHWIGWVRQMPGKGLEWMGMIYPGDSDTRYSPSFQGQVTISADKSINTAYLQWRSLKASDTAMYFCARHGGITGTTFYYDFGMDVWGQGTTVTVSS
VL: SYELTQPPSVSVSPGQTARITCSGDALPKQYASWYQQKPGQAPLLVIYRDSERPSGLPERFSGSSSGTTVTLTISGVQAEDEADYYCQSADSGGSYVFGTGTKVTVL
B2: 1B5: anti-PAR-2 monoclonal antibody; heavy SEQ ID NO: 13, light SEQ ID NO: 15 (antibody, listed as Homo sapiens)
heavy: EVQLVQSGAEVKKSGESLKISCKGSGYSFSNYWIGWVRQMPGKGLEWMGIIYPGDSDTRYSPSFQGQVTISADKSIRTAYLQWSSLKASDTAMYYCARHKGITGTTFYYDYGMDVWGQGTTVTVSS
light: B1 VL with D25E, L44V, S51T, L57I, G93N, S95A, K103R

Experiments:
[1] = Pharmacokinetic analysis in the paw edema study; type: in vivo, rat; conditions: SC administered
Sprague Dawley rats = test: Carrageenan paw edema in Sprague Dawley rat (plethysmography); type: in vivo; conditions: 0 Hr, antibodies IP 1.5 mg/rat, indomethacin 5 mg/kg
Procedure: (§1) This example describes the effects of PAR-2 antibodies on paw edema in an acute AIA model substantially as described previously. Briefly, 6-8 week old Sprague Dawley or Lewis rats (Charles River Laboratories, Wilmington, Mass.) were injected subcutaneously (SC) in the plantar region of the hind paw with 1% lambda carrageenan in one hind paw and control (saline) in the other. Blocking PAR-2 monoclonal antibody (1A1) or control (positive or negative control; see footnotes to Table 4) was administered intraperitoneally (IP) eighteen hours prior to adjuvant injection at 1.5 mg/rat (approximately 8-10 mg/kg), swelling was then measured by plethysomgraphy at selected time points. Data were expressed as volume of water in milliliters (mL) displaced per paw versus baseline measurements for that paw.

[2] = biological target: T1, N-terminal PAR-2/Fc (full length and truncated) (Homo sapiens, UniProt P55085); test: Western blot, binding to uncleaved versus clipped N-terminal PAR-2/Fc; conditions: upstream binder binds only full-length PAR-2/Fc
T1 construct: made in house; host or cells: CHO cells (10% FCS for uncleaved; serum-free for clipped)
From the text: N-terminal PAR-2/Fc polypeptide (SEQ ID NO:6) is expressed in suitable mammalian cells such as CHO cells. Expression supernatant from CHO expression cells cultured in serum-free media contain a CHO cell trypsin-like serine protease that cleaves PAR-2/Fc at the activation Arg-Ser bond, generating the “clipped” version of the PAR-2/Fc polypeptide. CHO expression cells cultured in 10% fetal calf serum (which contains normal levels of plasma proteinase inhibitors at concentrations far in excess of the concentration of the CHO cell trypsin-like serine protease) express uncleaved N-terminal PAR-2/Fc in culture supernatants. Both clipped and uncleaved proteins are purified using methods that are suitable for isolation and purification of proteins comprising an Fc regions (for example, using a MabSelect™ resin systems, from GE Healthcare, Piscataway, N.J.)). The resultant purified Fc-constructs are analyzed by amino terminal sequence analysis (Edman degradation), size exclusion chromatrography, absorbance spectral scan, and mass spectroscopy, as needed.
To analyze binding to uncleaved versus cleaved PAR-2, various amounts of purified uncleaved and clipped N-terminal PAR2-Fc are subjected to SDS-PAGE using 8-16% polyacrylamide gradient gels (Novex gels, Invitrogen Life Technologies) in a Tris-Glycine buffer system. Gel lanes containing See Blue standards (Novex, Invitrogen Life Technologies) for molecular weight identification are also included. Following electrophoresis, proteins are transferred from gels onto nitrocellulose membranes using a Novex XCell II Blot Module (Invitrogen Life Technologies). Membranes are blocked with 1:1, Odyssey blocking buffer, OBB, (LI-COR Biosciences):TBS (Tris Buffer Saline) overnight at 4 C with shaking. Antibodies to be analyzed are diluted in 1:1 OBB:TBS at a desired final concentration for 1 hr at room temperature. Membranes are washed extensively with 0.1% Tween 20 in TBS (3-4 changes of 100 ml over ˜1 hr). Membranes are then exposed to the appropriate secondary antibody-Alexa680 (Molecular Probes, Invitrogen Life Technologies) conjugate (goat anti-rabbit IgG, or goat anti-mouse IgG) diluted 1:5000 in 1:1 (OBB:TBS) for 1 hr at room temperature. Membranes are washed as described above, and if desired, analyzed using a LI-COR Odyssey Infrared Imaging System (LI-COR Biosciences).
Several PAR-2 antibodies were tested in different assay formats; Table 2 summarizes the results. IC50 values were determined in a FLIPR assay for Ca2+ mobilization described previously; binding to the upstream region of the cleavage site versus the downstream region of the cleavage site was determined using the Western blot assay described previously.

Lewis rats [3] = test: Acute adjuvant-induced arthritis (C/K) model, knee joint thickness; type: in vivo; conditions: Lewis rat, group mean ± SEM
Procedure: This example describes acute and chronic models of arthritis. In both models, animals are anesthetized, for example by Ketamine/Xylazine mixture (mouse mix or rat mix, respectively) or isoflurane for all intraarticular (IA), periarticular (PA) injections or intradermal (ID) injections.
Joint injections, IA or PA, are targeted at either knees or hind limb paws. PA injections are equally divided across four sites surrounding the joint of interest. Paw injections are administered ID into the plantar area of the hind paw. To serve as an internal control, one knee or hind-limb paw is injected with vehicle alone or sterile PBS. Preparation of the injection area includes shaving the joint area after animals are anesthetized, and scrubbing with an iodine solution followed by an alcohol disinfectant. All articular injections are given with a 30-gauge needle or equivalent, and when needed by a gastight (i.e., Hamilton) syringe, for small injection volumes (i.e. 10 microL).
For induction of acute AIA (aAIA), animals are injected on day zero (D0) with 1-4% lambda-carrageenan and 1-4% kaolin (C/K) by IA injection in saline. Concentrations of both compounds are dependent on intended disease severity. Total injection volumes for the inducing agent are between 10-20 microL for mice and 60-80 microL for rat. Both concentration and injection volume are consistent with published methodologies (J Clin Invest. 2003; 111(1):35-41, and J Pharmacol Exp Ther. 2006; 316(3):1017-24). Alternatively, specific PAR-2 peptide agonists, or other activators of inflammation (such as trypsin, or human beta-tryptase [J Clin Invest. 2003; 111(1):35-41, J Pharmacol Exp Ther. 2006; 316(3):1017-24, J Pharmacol Sci. 2005 97(1):38-42, and Br J Pharmacol. 1999 127(5):1083-90]) or the equivalent, may be used. Concentrations used are selected for intended disease severity, and total injection volumes are appropriate to the animal being injected.
For both acute and chronic AIA studies, caliper measurements of joint diameter are taken of all joints of interest prior to any injection. Tracking of disease may include caliper measurements of joint diameter as well as flexible tape measurements of joint circumference, and visual scoring. Alternative methods (i.e., use of a plethysmometer) may also be used. Severity of cAIA is scored by one or both of the criteria shown below:
In this manner, 6-8 week old Lewis rats were injected with C/K plus treatment (or control) in the left knee, and negative control in each right knee, as for the acute model. Joint thickness was measured at set time points after treatment, using an average of three caliper readings. The change in thickness of the left knee as compared to the right knee was expressed as percent change, and is shown in Table 3 below.

rats = test: Paw edema study, further experiments (IP versus SC, dose dependence); type: in vivo, rat
Lewis rats [4] = test: Carrageenan paw edema in Lewis rat (plethysmography); type: in vivo; conditions: IP 18 h prior to carrageenan, 1.5 mg/rat
Procedure: as §1

[5] = biological target: T2, cell surface expressed human PAR-2 (Homo sapiens, UniProt P55085); test: KinExA binding to cell surface expressed PAR-2; conditions: initial analysis, 95% confidence interval of 1.36 to 5.47 nM, N=2 experiments
T2 construct: expressed in transfected cells; host or cells: CHO cells
T2 sequence (P55085 26-397): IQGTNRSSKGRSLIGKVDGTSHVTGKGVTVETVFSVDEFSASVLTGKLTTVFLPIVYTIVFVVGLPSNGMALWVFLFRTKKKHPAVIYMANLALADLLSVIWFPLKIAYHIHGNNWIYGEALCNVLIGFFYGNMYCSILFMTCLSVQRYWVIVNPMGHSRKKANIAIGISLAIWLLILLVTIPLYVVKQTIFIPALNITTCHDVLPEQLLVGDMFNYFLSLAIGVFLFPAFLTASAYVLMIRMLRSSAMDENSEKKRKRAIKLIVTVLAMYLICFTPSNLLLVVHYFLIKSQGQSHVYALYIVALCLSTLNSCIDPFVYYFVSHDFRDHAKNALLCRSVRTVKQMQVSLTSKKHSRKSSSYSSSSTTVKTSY
From the text: This example describes the analysis of the binding properties of PAR-2 antigen-binding proteins to cell surface expressed PAR-2 utilizing a Kinetic Exclusion Assay which measures binding events in solution phase and can be used to calculate KD, Kon and Koff (KinExA®; Sapidyne Instruments, Boise, Id.), substantially as described previously by Xie et. al. J. Imm, Methods 304:1 (2005) and Rathanaswami et. al. Anal. Biochem. 373:52 (2008). Briefly, serial dilutions of cells expressing human PAR-2 (for example, CHO transfectants expressing human PAR-2 at the cell surface, obtainable by transfecting CHO cells with human full length PAR-2 cDNA encoding a polypeptide of SEQ ID NO:2) and control cells (i.e., non-transfected CHO cells) in a modified DMEM medium (phenol red free containing 10% heat inactivated FBS, 0.1 mM MEM non-essential amino acids, 1 mM sodium pyruvate, penicillin-streptomycin-glutamine, and 0.025% (w/w) sodium azide) are incubated with set amounts of antibody for 24 to 36 hours at 4 C with rotation. […] The free mAb is measured by KinExA® using the appropriate capture beads and Cy5-conjugated anti-human secondary antibodies, as described by Rathanaswami et al. Biochem Biophys Research Commun: 1004 (2005). […]
The KD of certain PAR-2 antibodies was determined in this manner.

T1 sequence (P55085 with tags, fused parts or gaps limits assumed): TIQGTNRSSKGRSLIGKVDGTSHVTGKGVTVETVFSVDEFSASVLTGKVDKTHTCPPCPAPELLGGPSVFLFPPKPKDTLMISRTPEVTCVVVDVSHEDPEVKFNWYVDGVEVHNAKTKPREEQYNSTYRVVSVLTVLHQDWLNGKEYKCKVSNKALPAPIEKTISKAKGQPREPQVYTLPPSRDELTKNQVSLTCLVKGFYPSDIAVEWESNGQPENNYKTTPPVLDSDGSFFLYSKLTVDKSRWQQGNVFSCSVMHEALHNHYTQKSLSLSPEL

Row | Molecule | bioavailability [1] | Paw Edema, volume of water displaced per paw versus baseline (Sprague Dawley rats) [mL] | Binding to Cleavage Site Up stream [2] | change in thickness of the left knee as compared to the right knee, percent change (Lewis rats [3]; 0 Hr) [%] | change in thickness of the left knee as compared to the right knee, percent change (Lewis rats [3]; 2 Hr) [%] | change in thickness of the left knee as compared to the right knee, percent change (Lewis rats [3]; 72 Hr) [%] | effect on paw swelling (rats; administered IP) | inhibition of swelling, dose dependence (rats; administered IP) | effect on paw swelling (rats; administered SC) | Paw Edema, volume of water displaced per paw versus baseline (Lewis rats [4]; 0 Hr) [mL] | Paw Edema, volume of water displaced per paw versus baseline (Lewis rats [4]; 2 Hr) [mL] | Kd [5] [nM]
1 | B1 | suboptimal | 0.00 ± 0.00 | xxx | 0.00 ± 0.00 | 1.10 ± 1.13 | 3.48 ± 0.66 | significantly decreased paw swelling | dose-dependent manner | not when administered SC | 0.00 ± 0.00 | 0.15 ± 0.06 | 
2 | B2 |  |  | xxx |  |  |  |  |  |  |  |  | 3.39
